From the supplement of paper PMC10567573

B1: TPD52L1 (parent)
chain: ISKKFGDMSYSIRHSISMPAMRNS

Variants of: B1
Assay: protein stability index of a GFP-peptide fusion (GPS, HEK-293T) (PSI 1-6); higher = more stable
Settings: c terminus: a fixed tail appended
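Note: lentivirally expressed fusions sorted by FACS into six bins by GFP to DsRed ratio, PSI derived from sequencing read proportions per bin multiplied by bin number.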

**Q.** With ISKKFGDMSYSMRHSISMPAMRNS as the variant, how does the protein stability index read?
**A.** 2.44

**Q.** Which protein stability index does the source give for ISKKFGDMSYSWRHSISMPAMRNS here?
**A.** 1.57

**Q.** Which protein stability index does the source give for ISKKFGDMSYSFRHSISMPAMRNS here?
**A.** 2.63

**Q.** Which protein stability index does the source give for ISKKFGDMSYSPRHSISMPAMRNS here?
**A.** 2.98

**Q.** Which protein stability index does the source give for ISKKFGDMSYSTRHSISMPAMRNS here?
**A.** 2.83

**Q.** With ISKKFGDMSYSNRHSISMPAMRNS as the variant, how does the protein stability index read?
**A.** 3.1

**Q.** Which protein stability index does the source give for ISKKFGDMSYSVRHSISMPAMRNS here?
**A.** 2.28

**Q.** For ISKKFGDMSYSSRHSISMPAMRNS, which protein stability index is on record?
**A.** 2.41

**Q.** Which protein stability index does the source give for ISKKFGDMSYSKRHSISMPAMRNS here?
**A.** 2.56

**Q.** With ISKKFGDMSYSLRHSISMPAMRNS as the variant, how does the protein stability index read?
**A.** 2.71

**Q.** For ISKKFGDMSYSYRHSISMPAMRNS, which protein stability index is on record?
**A.** 2.37

**Q.** For ISKKFGDMSYSRRHSISMPAMRNS, which protein stability index is on record?
**A.** 2.86

**Q.** With ISKKFGDMSYSCRHSISMPAMRNS as the variant, how does the protein stability index read?
**A.** 1.54

**Q.** Which protein stability index does the source give for ISKKFGDMSYSARHSISMPAMRNS here?
**A.** 2.55

**Q.** For ISKKFGDMSYSHRHSISMPAMRNS, which protein stability index is on record?
**A.** 2.6

**Q.** Which protein stability index does the source give for ISKKFGDMSYSGRHSISMPAMRNS here?
**A.** 2.4

**Q.** Which protein stability index does the source give for ISKKFGDMSYSERHSISMPAMRNS here?
**A.** 3.36

**Q.** With ISKKFGDMSYSDRHSISMPAMRNS as the variant, how does the protein stability index read?
**A.** 3.07

**Q.** Which protein stability index does the source give for ISKKFGDMSYSQRHSISMPAMRNS here?
**A.** 2.27

**Q.** For ISKKFGDMSYSIVHSISMPAMRNS, which protein stability index is on record?
**A.** 2.6

**Q.** With ISKKFGDMSYSIWHSISMPAMRNS as the variant, how does the protein stability index read?
**A.** 2.29

**Q.** For ISKKFGDMSYSIEHSISMPAMRNS, which protein stability index is on record?
**A.** 2.48

**Q.** Which protein stability index does the source give for ISKKFGDMSYSILHSISMPAMRNS here?
**A.** 1.77

**Q.** With ISKKFGDMSYSIDHSISMPAMRNS as the variant, how does the protein stability index read?
**A.** 2.49

**Q.** With ISKKFGDMSYSIQHSISMPAMRNS as the variant, how does the protein stability index read?
**A.** 2.05

**Q.** Which protein stability index does the source give for ISKKFGDMSYSIPHSISMPAMRNS here?
**A.** 2.67

**Q.** Which protein stability index does the source give for ISKKFGDMSYSIMHSISMPAMRNS here?
**A.** 1.89

**Q.** For ISKKFGDMSYSITHSISMPAMRNS, which protein stability index is on record?
**A.** 2.01

**Q.** For ISKKFGDMSYSIYHSISMPAMRNS, which protein stability index is on record?
**A.** 1.45

**Q.** For ISKKFGDMSYSIHHSISMPAMRNS, which protein stability index is on record?
**A.** 2.37

**Q.** For ISKKFGDMSYSIKHSISMPAMRNS, which protein stability index is on record?
**A.** 2.14

**Q.** For ISKKFGDMSYSIFHSISMPAMRNS, which protein stability index is on record?
**A.** 2.01

**Q.** With ISKKFGDMSYSINHSISMPAMRNS as the variant, how does the protein stability index read?
**A.** 2.1

**Q.** Which protein stability index does the source give for ISKKFGDMSYSIIHSISMPAMRNS here?
**A.** 1.64

**Q.** For ISKKFGDMSYSIAHSISMPAMRNS, which protein stability index is on record?
**A.** 2.21

**Q.** Which protein stability index does the source give for ISKKFGDMSYSIGHSISMPAMRNS here?
**A.** 2.45

**Q.** For ISKKFGDMSYSICHSISMPAMRNS, which protein stability index is on record?
**A.** 1.78

**Q.** For ISKKFGDMSYSISHSISMPAMRNS, which protein stability index is on record?
**A.** 2.02

**Q.** With ISKKFGDMSYSIRNSISMPAMRNS as the variant, how does the protein stability index read?
**A.** 2.38

**Q.** Which protein stability index does the source give for ISKKFGDMSYSIRYSISMPAMRNS here?
**A.** 1.7

**Q.** With ISKKFGDMSYSIRASISMPAMRNS as the variant, how does the protein stability index read?
**A.** 2.15

**Q.** With ISKKFGDMSYSIRGSISMPAMRNS as the variant, how does the protein stability index read?
**A.** 1.88

**Q.** With ISKKFGDMSYSIRLSISMPAMRNS as the variant, how does the protein stability index read?
**A.** 3.05

**Q.** With ISKKFGDMSYSIRISISMPAMRNS as the variant, how does the protein stability index read?
**A.** 2.73

**Q.** For ISKKFGDMSYSIRQSISMPAMRNS, which protein stability index is on record?
**A.** 2.28

**Q.** With ISKKFGDMSYSIRDSISMPAMRNS as the variant, how does the protein stability index read?
**A.** 3.35

**Q.** With ISKKFGDMSYSIRMSISMPAMRNS as the variant, how does the protein stability index read?
**A.** 2.44

**Q.** For ISKKFGDMSYSIRKSISMPAMRNS, which protein stability index is on record?
**A.** 2.69

**Q.** With ISKKFGDMSYSIRESISMPAMRNS as the variant, how does the protein stability index read?
**A.** 2.33

**Q.** Which protein stability index does the source give for ISKKFGDMSYSIRRSISMPAMRNS here?
**A.** 3.72

**Q.** Which protein stability index does the source give for ISKKFGDMSYSIRTSISMPAMRNS here?
**A.** 1.9

**Q.** With ISKKFGDMSYSIRPSISMPAMRNS as the variant, how does the protein stability index read?
**A.** 2.56

**Q.** Which protein stability index does the source give for ISKKFGDMSYSIRFSISMPAMRNS here?
**A.** 2.49

**Q.** For ISKKFGDMSYSIRVSISMPAMRNS, which protein stability index is on record?
**A.** 4.3

**Q.** For ISKKFGDMSYSIRCSISMPAMRNS, which protein stability index is on record?
**A.** 2.73

**Q.** Which protein stability index does the source give for ISKKFGDMSYSIRSSISMPAMRNS here?
**A.** 1.8

**Q.** Which protein stability index does the source give for ISKKFGDMSYEIRHSISMPAMRNS here?
**A.** 1.97

**Q.** For ISKKFGDMSYQIRHSISMPAMRNS, which protein stability index is on record?
**A.** 2.22

**Q.** With ISKKFGDMSYTIRHSISMPAMRNS as the variant, how does the protein stability index read?
**A.** 2.38

**Q.** Which protein stability index does the source give for ISKKFGDMSYHIRHSISMPAMRNS here?
**A.** 2.41

**Q.** For ISKKFGDMSYKIRHSISMPAMRNS, which protein stability index is on record?
**A.** 1.99

**Q.** Which protein stability index does the source give for ISKKFGDMSYIIRHSISMPAMRNS here?
**A.** 2.03

**Q.** Which protein stability index does the source give for ISKKFGDMSYDIRHSISMPAMRNS here?
**A.** 2.68

**Q.** For ISKKFGDMSYNIRHSISMPAMRNS, which protein stability index is on record?
**A.** 2.74

**Q.** For ISKKFGDMSYAIRHSISMPAMRNS, which protein stability index is on record?
**A.** 2.51

**Q.** With ISKKFGDMSYLIRHSISMPAMRNS as the variant, how does the protein stability index read?
**A.** 2.75

**Q.** Which protein stability index does the source give for ISKKFGDMSYCIRHSISMPAMRNS here?
**A.** 1.88

**Q.** With ISKKFGDMSYFIRHSISMPAMRNS as the variant, how does the protein stability index read?
**A.** 1.91

**Q.** With ISKKFGDMSYWIRHSISMPAMRNS as the variant, how does the protein stability index read?
**A.** 1.67

**Q.** With ISKKFGDMSYRIRHSISMPAMRNS as the variant, how does the protein stability index read?
**A.** 2.24

**Q.** Which protein stability index does the source give for ISKKFGDMSYVIRHSISMPAMRNS here?
**A.** 2.49

**Q.** With ISKKFGDMSYYIRHSISMPAMRNS as the variant, how does the protein stability index read?
**A.** 2.06

**Q.** With ISKKFGDMSYPIRHSISMPAMRNS as the variant, how does the protein stability index read?
**A.** 2.58

**Q.** With ISKKFGDMSYGIRHSISMPAMRNS as the variant, how does the protein stability index read?
**A.** 2.52

**Q.** For ISKKFGDMSYMIRHSISMPAMRNS, which protein stability index is on record?
**A.** 2.03

**Q.** For ISKKFGDMSYSIRHCISMPAMRNS, which protein stability index is on record?
**A.** 2.23

**Q.** Which protein stability index does the source give for ISKKFGDMSYSIRHNISMPAMRNS here?
**A.** 2.37

**Q.** With ISKKFGDMSYSIRHFISMPAMRNS as the variant, how does the protein stability index read?
**A.** 1.42

**Q.** For ISKKFGDMSYSIRHQISMPAMRNS, which protein stability index is on record?
**A.** 2.5

**Q.** For ISKKFGDMSYSIRHYISMPAMRNS, which protein stability index is on record?
**A.** 1.51

**Q.** With ISKKFGDMSYSIRHEISMPAMRNS as the variant, how does the protein stability index read?
**A.** 3.28

**Q.** Which protein stability index does the source give for ISKKFGDMSYSIRHWISMPAMRNS here?
**A.** 2.22

**Q.** With ISKKFGDMSYSIRHHISMPAMRNS as the variant, how does the protein stability index read?
**A.** 1.85

**Q.** With ISKKFGDMSYSIRHKISMPAMRNS as the variant, how does the protein stability index read?
**A.** 2.31

**Q.** Which protein stability index does the source give for ISKKFGDMSYSIRHRISMPAMRNS here?
**A.** 2.24

**Q.** Which protein stability index does the source give for ISKKFGDMSYSIRHMISMPAMRNS here?
**A.** 1.91

**Q.** Which protein stability index does the source give for ISKKFGDMSYSIRHGISMPAMRNS here?
**A.** 2.38

**Q.** With ISKKFGDMSYSIRHTISMPAMRNS as the variant, how does the protein stability index read?
**A.** 1.88

**Q.** Which protein stability index does the source give for ISKKFGDMSYSIRHDISMPAMRNS here?
**A.** 1.92

**Q.** With ISKKFGDMSYSIRHAISMPAMRNS as the variant, how does the protein stability index read?
**A.** 2.23

**Q.** With ISKKFGDMSYSIRHIISMPAMRNS as the variant, how does the protein stability index read?
**A.** 1.87

**Q.** For ISKKFGDMSYSIRHVISMPAMRNS, which protein stability index is on record?
**A.** 1.32

**Q.** For ISKKFGDMSYSIRHPISMPAMRNS, which protein stability index is on record?
**A.** 2.43

**Q.** With ISKKFGDMSYSIRHLISMPAMRNS as the variant, how does the protein stability index read?
**A.** 1.83
